Reference: US20040176301A1 (CYCLACEL, published 2004)
Like-named read-outs stand apart in the source and are kept apart here. Square brackets hold non-standard residues; d marks the D form. Ends that are not written are not given here. Phe(4-F) = N[C@@H](Cc1ccc(F)cc1)C(=O)O; Cit = NC(=O)NCCC[C@H](N)C(=O)O; Nle = CCCC[C@H](N)C(=O)O; Abu = CC[C@H](N)C(=O)O

Assays:
[1] = molecular target: CDK2/cyclin A complex (UniProt P24941 1-298; P20248 1-432); assay: cell-based or functional assay
[2] = molecular target: T1, CDK2/cyclin A (UniProt P24941 1-298; P20248 1-432); assay: cell-based or functional assay
[3] = molecular target: recombinant CDK2/cyclin A (UniProt P20248 1-432; P24941 1-298); assay: cell-based or functional assay
[4] = molecular target: T1, CDK2/cyclin A; assay: cell-based or functional assay; remark: listed apart in the source
[5] = molecular target: T1, CDK2/cyclin A; assay: cell-based or functional assay; remark: listed apart in the source
[6] = molecular target: CDK2/Cyclin E complex (UniProt P24941 1-298; P24864 1-410); assay: cell-based or functional assay
[7] = molecular target: CDK4/Cyclin D1 complex (UniProt P11802 1-303; P24385 1-295); assay: cell-based or functional assay
[8] = molecular target: CDK1/Cyclin B complex (UniProt P06493 1-297; P14635 1-433); assay: cell-based or functional assay
[9] = molecular target: T1, CDK2/cyclin A; assay: cell-based or functional assay; remark: listed apart in the source
[10] = molecular target: Cyclin A (UniProt P20248 173-432, limits assumed); assay: competitive cyclin A binding ELISA, competitor: immobilised p21 peptide

Sequence of CDK4/Cyclin D1 complex (P11802 other isoform, or with tags, fused parts or gaps, chain 1 of 2): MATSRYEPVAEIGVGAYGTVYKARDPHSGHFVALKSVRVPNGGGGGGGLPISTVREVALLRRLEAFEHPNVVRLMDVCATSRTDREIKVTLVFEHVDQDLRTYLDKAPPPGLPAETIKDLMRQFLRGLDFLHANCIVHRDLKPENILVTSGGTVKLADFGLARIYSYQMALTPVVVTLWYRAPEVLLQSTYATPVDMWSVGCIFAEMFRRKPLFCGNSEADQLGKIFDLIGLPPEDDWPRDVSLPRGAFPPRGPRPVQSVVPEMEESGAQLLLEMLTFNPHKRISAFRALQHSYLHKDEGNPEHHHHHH
Sequence of CDK4/Cyclin D1 complex (P24385 whole entry, chain 2 of 2): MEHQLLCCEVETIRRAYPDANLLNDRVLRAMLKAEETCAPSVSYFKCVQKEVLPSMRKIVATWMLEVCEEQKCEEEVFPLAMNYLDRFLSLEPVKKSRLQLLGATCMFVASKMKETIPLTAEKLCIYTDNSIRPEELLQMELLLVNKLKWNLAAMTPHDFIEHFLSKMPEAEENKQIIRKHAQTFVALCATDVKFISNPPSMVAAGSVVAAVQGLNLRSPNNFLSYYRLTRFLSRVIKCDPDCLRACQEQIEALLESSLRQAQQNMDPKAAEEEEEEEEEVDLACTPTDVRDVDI
Sequence of CDK1/Cyclin B complex (P06493 other isoform, or with tags, fused parts or gaps, chain 1 of 2): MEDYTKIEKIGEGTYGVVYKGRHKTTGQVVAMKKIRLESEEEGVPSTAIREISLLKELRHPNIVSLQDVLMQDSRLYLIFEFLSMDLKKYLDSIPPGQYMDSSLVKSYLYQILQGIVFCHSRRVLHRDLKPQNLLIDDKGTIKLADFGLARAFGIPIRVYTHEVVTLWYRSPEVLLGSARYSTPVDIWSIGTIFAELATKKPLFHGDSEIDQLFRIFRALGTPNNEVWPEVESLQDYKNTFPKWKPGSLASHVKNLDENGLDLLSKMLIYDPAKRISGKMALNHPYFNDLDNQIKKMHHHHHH
Sequence of CDK1/Cyclin B complex (P14635 other isoform, or with tags, fused parts or gaps, chain 2 of 2): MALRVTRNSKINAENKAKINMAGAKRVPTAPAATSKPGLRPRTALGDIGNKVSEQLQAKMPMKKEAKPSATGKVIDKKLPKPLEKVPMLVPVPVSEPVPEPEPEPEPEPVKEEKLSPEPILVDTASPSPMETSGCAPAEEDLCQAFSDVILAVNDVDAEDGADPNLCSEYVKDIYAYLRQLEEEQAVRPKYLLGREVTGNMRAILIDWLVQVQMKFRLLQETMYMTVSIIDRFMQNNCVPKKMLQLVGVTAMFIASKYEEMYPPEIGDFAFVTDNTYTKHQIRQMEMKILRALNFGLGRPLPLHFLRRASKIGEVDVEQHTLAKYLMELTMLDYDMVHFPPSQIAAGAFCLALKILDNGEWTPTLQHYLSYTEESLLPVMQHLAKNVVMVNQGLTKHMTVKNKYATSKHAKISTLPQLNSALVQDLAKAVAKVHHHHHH

XAKRRLIF (Dab (diaminobutyric acid) at position 1; C-terminal amide) [H-Dab-Ala-Lys-Arg-Arg-Leu-Ile Phe-NH2]
Relative activity, CDK2/cyclin A kinase inhibition (pRb substrate) [1]: 5 relative to HAKRRLIF-NH2

B1: H-Ala-Ala-Lys-Arg-Cit-Leu-Ile-pFPhe-NH2 (peptide)
peptide: H-AAKR[Cit]LI[Phe(4-F)]-NH2
SMILES: CC[C@H](C)[C@H](NC(=O)[C@H](CC(C)C)NC(=O)[C@H](CCCNC(N)=O)NC(=O)[C@H](CCCNC(=N)N)NC(=O)[C@H](CCCCN)NC(=O)[C@H](C)NC(=O)[C@H](C)N)C(=O)N[C@@H](Cc1ccc(F)cc1)C(N)=O
Relative activity, Kinase Inhibition (CDK2/cyclin A kinase assay, pRb substrate, [ATP] = 100 µM) [2]: 10 relative to H-His-Ala-Lys-Arg-Arg-Leu-Ile-Phe-NH2 (=1)

Ac-RRLNF-NH2 [Ac-Arg-Arg-Leu-Asn-Phe-NH2]
Kinase IC50 (µM) CyclinA/CDK2 [3]: 37.2 µM

B2: H-Ala-Ala-Lys-Arg-Arg-Leu-Ala-pFPhe-NH2 (peptide)
peptide: H-AAKRRLA[Phe(4-F)]-NH2
SMILES: CC(C)C[C@H](NC(=O)[C@H](CCCNC(=N)N)NC(=O)[C@H](CCCNC(=N)N)NC(=O)[C@H](CCCCN)NC(=O)[C@H](C)NC(=O)[C@H](C)N)C(=O)N[C@@H](C)C(=O)N[C@@H](Cc1ccc(F)cc1)C(N)=O
Relative activity, Kinase Inhibition (CDK2/cyclin A kinase assay, pRb substrate, [ATP] = 100 µM) [2]: 20 relative to H-His-Ala-Lys-Arg-Arg-Leu-Ile-Phe-NH2 (=1)

B3: H-His-Ala-Lys-Nle-Arg-Leu-Ile-Phe-NH2 (peptide)
peptide: H-HAK[Nle]RLIF-NH2
SMILES: CCCC[C@H](NC(=O)[C@H](CCCCN)NC(=O)[C@H](C)NC(=O)[C@@H](N)Cc1c[nH]cn1)C(=O)N[C@@H](CCCNC(=N)N)C(=O)N[C@@H](CC(C)C)C(=O)N[C@H](C(=O)N[C@@H](Cc1ccccc1)C(N)=O)[C@@H](C)CC
Relative activity, Kinase Inhibition (CDK2/cyclin A kinase assay, pRb substrate, [ATP] = 100 µM) [4]: < 0.1 relative to H-His-Ala-Lys-Arg-Arg-Leu-Ile-Phe-NH2 (=1)

H-HAKARLIF-NH2 [H-His-Ala-Lys-Ala-Arg-Leu-Ile-Phe-NH2]
Relative activity, Kinase Inhibition (CDK2/cyclin A kinase assay, pRb substrate, [ATP] = 100 µM) [4]: < 0.1 relative to H-His-Ala-Lys-Arg-Arg-Leu-Ile-Phe-NH2 (=1)

XAKRRLIF (Hse (homoserine) at position 1; C-terminal amide) [H-Hse-Ala-Lys-Arg-Arg-Leu-Ile Phe-NH2]
Relative activity, CDK2/cyclin A kinase inhibition (pRb substrate) [1]: 2 relative to HAKRRLIF-NH2

H-FAKRRLIF-NH2 [H-Phe-Ala-Lys-Arg-Arg-Leu-Ile Phe-NH2]
Relative activity, CDK2/cyclin A kinase inhibition (pRb substrate) [1]: 3 relative to HAKRRLIF-NH2

B4: H-Ala-Ala-Abu-Arg-Ser-Leu-Ile-pFPhe-NH2 (peptide)
peptide: H-AA[Abu]RSLI[Phe(4-F)]-NH2
SMILES: CC[C@H](NC(=O)[C@H](C)NC(=O)[C@H](C)N)C(=O)N[C@@H](CCCNC(=N)N)C(=O)N[C@@H](CO)C(=O)N[C@@H](CC(C)C)C(=O)N[C@H](C(=O)N[C@@H](Cc1ccc(F)cc1)C(N)=O)[C@@H](C)CC
Relative activity, Kinase Inhibition (CDK2/cyclin A kinase assay, pRb substrate, [ATP] = 100 µM) [2]: 14 relative to H-His-Ala-Lys-Arg-Arg-Leu-Ile-Phe-NH2 (=1)

B5: H-Ala-Ala-Lys-Gln-Arg-Leu-Ile-pFPhe-NH2 (peptide)
peptide: H-AAKQRLI[Phe(4-F)]-NH2
SMILES: CC[C@H](C)[C@H](NC(=O)[C@H](CC(C)C)NC(=O)[C@H](CCCNC(=N)N)NC(=O)[C@H](CCC(N)=O)NC(=O)[C@H](CCCCN)NC(=O)[C@H](C)NC(=O)[C@H](C)N)C(=O)N[C@@H](Cc1ccc(F)cc1)C(N)=O
Relative activity, Kinase Inhibition (CDK2/cyclin A kinase assay, pRb substrate, [ATP] = 100 µM) [2]: 4 relative to H-His-Ala-Lys-Arg-Arg-Leu-Ile-Phe-NH2 (=1)

H-HAKKRLIF-NH2 [H-His-Ala-Lys-Lys-Arg-Leu-Ile-Phe-NH2]
Relative activity, Kinase Inhibition (CDK2/cyclin A kinase assay, pRb substrate, [ATP] = 100 µM) [4]: 0.8 relative to H-His-Ala-Lys-Arg-Arg-Leu-Ile-Phe-NH2 (=1)

B6: H-His-Ala-Nle-Arg-Arg-Leu-Ile-Phe-NH2 (peptide)
peptide: H-HA[Nle]RRLIF-NH2
SMILES: CCCC[C@H](NC(=O)[C@H](C)NC(=O)[C@@H](N)Cc1c[nH]cn1)C(=O)N[C@@H](CCCNC(=N)N)C(=O)N[C@@H](CCCNC(=N)N)C(=O)N[C@@H](CC(C)C)C(=O)N[C@H](C(=O)N[C@@H](Cc1ccccc1)C(N)=O)[C@@H](C)CC
Relative activity, Kinase Inhibition (CDK2/cyclin A kinase assay, pRb substrate, [ATP] = 100 µM) [5]: 0.3 relative to H-His-Ala-Lys-Arg-Arg-Leu-Ile-Phe-NH2 (=1)

AKRRLIX (pFPhe (p-fluorophenylalanine) at position 7; C-terminal amide (-NH2)) [H-Ala-Lys-Arg-Arg-Leu-Ile-pFPhe-NH2]
Relative activity, Kinase Inhibition (CDK2/cyclin A kinase assay, pRb substrate, [ATP] = 100 µM) [2]: 4 relative to H-His-Ala-Lys-Arg-Arg-Leu-Ile-Phe-NH2 (=1)

DFYHSKRRLIF-NH2 [p21 (149-159) DFYHSKRRLIF-NH2]
% Inhibition, cyclin E/CDK2 kinase [6]: 75%
IC50, cyclin E/CDK2 kinase, GST-pRb [6]: 2 µM
% Inhibition, cyclin D1/CDK4 kinase [7]: 70%
IC50, cyclin D1/CDK4 kinase, GST-pRb [7]: 13 µM
IC50, CDK1-Cyclin B phosphorylation of GST-Rb [8]: > 200 µM

H-HAKRALIF-NH2 [H-His-Ala-Lys-Arg-Ala-Leu-Ile-Phe-NH2]
Relative activity, Kinase Inhibition (CDK2/cyclin A kinase assay, pRb substrate, [ATP] = 100 µM) [9]: < 0.1 relative to H-His-Ala-Lys-Arg-Arg-Leu-Ile-Phe-NH2 (=1)

B7: GST-pRb(772-928) (other, UniProt P06400 772-928, looked up)
chain: ASTRPPTLSPIPHIPRSPYKFPSSPLRIPGGNIYISPLKSPYKISEGLPTPTKMTPRSRILVSIGESFGTSEKFQKINQMVCNSDRVLKRSAEGSNPPKPLKKLRFDIEGSDEADGSKHLPGESKFQQKLAEMTSTRTRMQKQKMNDSMDTSNKEEK
notes: range 772-928; Limits of the pRb part are printed inconsistently; also called GST-Rb; GST-Rb(772-928); not shown: glutathione S-transferase (GST) fusion partner
IC50 [10]: 9 µM
